# In the supplement of paper PMC9112550, “Optimization of the antimicrobial peptide Bac7 by deep mutational scanning” (BMC Biology, 2022):
# System: Escherichia coli TOP10
# Test: shrunken log2 fold change of peptide-encoding DNA abundance (4.5 h post-induction vs induction); higher = less antimicrobial activity (less host growth inhibition)
# Conditions: time post-induction: 4.5 h; library: site-saturation at positions 5, 18, 19, 20
# 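Note: peptides expressed intracellularly from a pBAD plasmid library in pooled LB shake-flask culture, induced with 0.3% L-arabinose, DNA abundance read by NGS, three biological replicates, DESeq2 with apeglm shrinkage.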
row,Sequence,shrunken log2 fold change
1,RRIRKRPPRLPRPRPRPRIIPRP,0.081
2,RRIRKRPPRLPRPRPRPRMYPRP,0.155
3,RRIRKRPPRLPRPRPRPRNFPRP,0.731
4,RRIRKRPPRLPRPRPRPRNPPRP,0.358
5,RRIRKRPPRLPRPRPRPRPCPRP,0.365
6,RRIRKRPPRLPRPRPRPRQFPRP,0.192
7,RRIRKRPPRLPRPRPRPRQGPRP,0.708
8,RRIRKRPPRLPRPRPRPRSHPRP,0.38
9,RRIRKRPPRLPRPRPRPRSPPRP,0.6
10,RRIRKRPPRLPRPRPRPRTDPRP,0.206
11,RRIRKRPPRLPRPRPRPRVFPRP,0.701
12,RRIRKRPPRLPRPRPRPRVLPRP,0.498
13,RRIRKRPPRLPRPRPRPRVMPRP,0.436
14,RRIRKRPPRLPRPRPRPRWSPRP,0.559
15,RRIRKRPPRLPRPRPRPSATPRP,0.368
16,RRIRKRPPRLPRPRPRPSAYPRP,-0.277
17,RRIRKRPPRLPRPRPRPSCWPRP,0.244
18,RRIRKRPPRLPRPRPRPSDKPRP,-0.41
19,RRIRKRPPRLPRPRPRPSENPRP,0.101
20,RRIRKRPPRLPRPRPRPSEVPRP,-0.524
21,RRIRKRPPRLPRPRPRPSGVPRP,0.005
22,RRIRKRPPRLPRPRPRPSIFPRP,-0.0205

row,Sequence,shrunken log2 fold change
1,RRIRKRPPRLPRPRPRPSIGPRP,-0.0755
2,RRIRKRPPRLPRPRPRPSIKPRP,-0.004
3,RRIRKRPPRLPRPRPRPSMWPRP,1.63
4,RRIRKRPPRLPRPRPRPSNAPRP,-0.154
5,RRIRKRPPRLPRPRPRPSNFPRP,-0.198
6,RRIRKRPPRLPRPRPRPSQAPRP,-0.0142
7,RRIRKRPPRLPRPRPRPSRHPRP,0.0967
8,RRIRKRPPRLPRPRPRPSSGPRP,-0.0282
9,RRIRKRPPRLPRPRPRPSSIPRP,-0.0636
10,RRIRKRPPRLPRPRPRPSSKPRP,-0.181
11,RRIRKRPPRLPRPRPRPSTAPRP,-0.177
12,RRIRKRPPRLPRPRPRPSTNPRP,0.0826
13,RRIRKRPPRLPRPRPRPSVLPRP,0.0575
14,RRIRKRPPRLPRPRPRPSYCPRP,-0.251
15,RRIRKRPPRLPRPRPRPSYIPRP,-0.136
16,RRIRKRPPRLPRPRPRPTAFPRP,0.355
17,RRIRKRPPRLPRPRPRPTAVPRP,0.284
18,RRIRKRPPRLPRPRPRPTAWPRP,1.13
19,RRIRKRPPRLPRPRPRPTDKPRP,0.208
20,RRIRKRPPRLPRPRPRPTDMPRP,-0.124
21,RRIRKRPPRLPRPRPRPTEMPRP,0.25
22,RRIRKRPPRLPRPRPRPTEPPRP,-0.0305

row,Sequence,shrunken log2 fold change
1,RRIRKRPPRLPRPRPRPTFHPRP,0.136
2,RRIRKRPPRLPRPRPRPTGRPRP,0.609
3,RRIRKRPPRLPRPRPRPTGVPRP,0.00874
4,RRIRKRPPRLPRPRPRPTHDPRP,-0.101
5,RRIRKRPPRLPRPRPRPTHFPRP,-0.105
6,RRIRKRPPRLPRPRPRPTHGPRP,0.547
7,RRIRKRPPRLPRPRPRPTIMPRP,-0.0223
8,RRIRKRPPRLPRPRPRPTKCPRP,-0.184
9,RRIRKRPPRLPRPRPRPTLAPRP,1.19
10,RRIRKRPPRLPRPRPRPTLEPRP,0.132
11,RRIRKRPPRLPRPRPRPTLIPRP,-0.0752
12,RRIRKRPPRLPRPRPRPTLMPRP,0.758
13,RRIRKRPPRLPRPRPRPTMPPRP,0.282
14,RRIRKRPPRLPRPRPRPTMSPRP,0.22
15,RRIRKRPPRLPRPRPRPTMTPRP,0.608
16,RRIRKRPPRLPRPRPRPTMYPRP,-0.0949
17,RRIRKRPPRLPRPRPRPTNFPRP,0.111
18,RRIRKRPPRLPRPRPRPTNNPRP,-0.2
19,RRIRKRPPRLPRPRPRPTNVPRP,0.221
20,RRIRKRPPRLPRPRPRPTPNPRP,0.553
21,RRIRKRPPRLPRPRPRPTQGPRP,0.909
22,RRIRKRPPRLPRPRPRPTRDPRP,0.753

row,Sequence,shrunken log2 fold change
1,RRIRKRPPRLPRPRPRPTRRPRP,0.964
2,RRIRKRPPRLPRPRPRPTTCPRP,0.273
3,RRIRKRPPRLPRPRPRPTVDPRP,-0.108
4,RRIRKRPPRLPRPRPRPTVMPRP,0.247
5,RRIRKRPPRLPRPRPRPVCLPRP,0.0948
6,RRIRKRPPRLPRPRPRPVCQPRP,0.436
7,RRIRKRPPRLPRPRPRPVDGPRP,0.344
8,RRIRKRPPRLPRPRPRPVDPPRP,0.417
9,RRIRKRPPRLPRPRPRPVEYPRP,0.0119
10,RRIRKRPPRLPRPRPRPVFNPRP,0.117
11,RRIRKRPPRLPRPRPRPVGWPRP,0.897
12,RRIRKRPPRLPRPRPRPVHVPRP,0.0513
13,RRIRKRPPRLPRPRPRPVIDPRP,1.29
14,RRIRKRPPRLPRPRPRPVIKPRP,0.0845
15,RRIRKRPPRLPRPRPRPVIYPRP,-0.0353
16,RRIRKRPPRLPRPRPRPVLRPRP,0.0359
17,RRIRKRPPRLPRPRPRPVMNPRP,-0.0155
18,RRIRKRPPRLPRPRPRPVNAPRP,0.025
19,RRIRKRPPRLPRPRPRPVPFPRP,-0.101
20,RRIRKRPPRLPRPRPRPVPLPRP,0.185
21,RRIRKRPPRLPRPRPRPVPPPRP,1.85
22,RRIRKRPPRLPRPRPRPVPYPRP,-0.0558

row,Sequence,shrunken log2 fold change
1,RRIRKRPPRLPRPRPRPVRSPRP,2.24
2,RRIRKRPPRLPRPRPRPVTDPRP,-0.0127
3,RRIRKRPPRLPRPRPRPVTTPRP,0.0429
4,RRIRKRPPRLPRPRPRPVVLPRP,-0.0253
5,RRIRKRPPRLPRPRPRPVWEPRP,0.391
6,RRIRKRPPRLPRPRPRPVWHPRP,0.0861
7,RRIRKRPPRLPRPRPRPVWMPRP,0.136
8,RRIRKRPPRLPRPRPRPVYAPRP,-0.0576
9,RRIRKRPPRLPRPRPRPVYLPRP,-0.326
10,RRIRKRPPRLPRPRPRPWCQPRP,-0.0158
11,RRIRKRPPRLPRPRPRPWCWPRP,0.357
12,RRIRKRPPRLPRPRPRPWDIPRP,-0.0322
13,RRIRKRPPRLPRPRPRPWDLPRP,-0.136
14,RRIRKRPPRLPRPRPRPWDVPRP,0.0155
15,RRIRKRPPRLPRPRPRPWEKPRP,-0.00969
16,RRIRKRPPRLPRPRPRPWETPRP,0.696
17,RRIRKRPPRLPRPRPRPWFGPRP,0.0558
18,RRIRKRPPRLPRPRPRPWGDPRP,0.499
19,RRIRKRPPRLPRPRPRPWHDPRP,-0.406
20,RRIRKRPPRLPRPRPRPWHEPRP,-0.0363
21,RRIRKRPPRLPRPRPRPWHNPRP,-0.124
